Source: PMC3390373

Biological target: FLAG-tagged C-terminally truncated RPS0A (residues 1–197) (S. cerevisiae) (UniProt P32905)
Experiment: co-IP; WCE of H2880 wt cells overexpressing wt or C-terminally truncated RPS0A-FLAG; anti-FLAG M2 affinity matrix, 60 min, 4°C, buffer A200T (200 mM KCl, 20 mM Tris pH 8, 5 mM Mg acetate, 1 mM DTT, 0.2% Triton X-100); whole 40S subunits with their associated eIFs are recovered through the tagged RPS0A; Western blot, normalised to ASC1 (Figure 5B)

Sequence of UniProt P32905 (P32905 1-197): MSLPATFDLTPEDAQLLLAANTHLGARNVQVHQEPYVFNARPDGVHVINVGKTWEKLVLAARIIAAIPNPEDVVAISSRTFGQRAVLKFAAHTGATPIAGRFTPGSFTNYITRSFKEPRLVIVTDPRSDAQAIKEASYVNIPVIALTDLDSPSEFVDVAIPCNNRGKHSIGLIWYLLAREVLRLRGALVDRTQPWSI

- percent reduction of the co-purified amount against wt RPS0A-FLAG: 70%
Substance: eIF2 (from UniProt P32481 1-527) (complex)
